Test results as given in US10463752B2, “Protein polymer gold nanoparticle hybrid materials for small molecule delivery” (New York University, priority 2016, dated 2019).
Where “and” joins values, the source holds several entries; their conditions need not be identical. Equal entries are not always repeated. Marks after values point to notes of the source that are not given here.

B1: CE1-His6: protein diblock polymer with N-terminal hexahistidine tag, COMPcc coiled-coil C domain then elastin-like E1 domain (SEQ ID NO: 13) (protein)
chain: MRGSHHHHHHGSACELAATATATATATATAACGDLAPQMLRELQETNAALQDVRELLRQQVKEITFLKNTVMESDASGLQAATATATATATATAVDKPIAASAVPGVGVPGVGVPGFGVPGVGVPGVGVPLEGSGTGAKLN
B2: E1C-His6: protein diblock polymer with N-terminal hexahistidine tag, elastin-like E1 domain then COMPcc coiled-coil C domain (SEQ ID NO: 14) (protein)
chain: MRGSHHHHHHGSKPIAASAVPGVGVPGVGVPGFGVPGVGVPGVGVPLEGSELAATATATATATATAACGDLAPQMLRELQETNAALQDVRELLRQQVKEITFLKNTVMESDASGLQAATATATATATATAVDLQPS

Experiments:
[1] = system: MCF7 human breast cancer cells; test: Curcumin uptake in MCF7 cells by fluorescence microscopy; format: cell-based; details: complexed with curcumin
Protocol: MCF7 human breast cancer cells were obtained from ATCC and maintained at 37° C., 5% CO2 as monolayer cultures in Dulbecco's modified Eagle's medium (DMEM with high glucose containing phenol red) supplemented with 10% (v/v) fetal bovine serum (FBS), gentamicin (50 μg/mL), 100 U penicillin/100 μg/mL streptomycin. Because the loading capacities of curcumin for P•GNP nanocomposites are much larger than those of the proteins in the absence of GNP we prepared two corresponding curcumin controls that represented the bound curcumin levels in P•G NPs and protein polymers alone (Table 2). To avoid any uptake of unbound curcumin by the cells directly, we limited the curcumin amount that is equivalent to the loading capacity of 26 μM of protein samples in 50 mM sodium phosphate buffer, pH 7.4 and allowed to bind for 2 hours at room temperature prior to cell culture studies.
Multiple sets of experiments were performed to record curcumin uptake by image acquisition using FITC filter (Em: 520 nm) under fluorescence microscopy and direct measurement of curcumin uptake in cell extractions. Cells were grown directly on 24-well culture plates (8×10^4 cells/well) for cell extraction or on cover slips for microscopy. After 24 hours of cell plating, cells were treated for 4 or 24 hours with different combination of proteins with or without GNP and/or curcumin. For all the treatments, the total volume of samples with DMEM in 24-well plates was kept constant at 300 μL with proteins prepared at 10 μM concentrations. The ratio of sample amount to number of cells was also kept constant. The results are representative of two such independent sets of experiments.
For fluorescent imaging of curcumin uptake, cells on coverslips were fixed with 300 μL 4% paraformaldehyde solution in DPBS for 20 minutes at room temperature on a plate rocker. […] Cells were viewed using fluorescence microscope IX71 (Olympus) using DAPI (for cell nuclei) and FITC (for curcumin uptake) at 60× magnification while keeping the exposure time for the FITC images constant at 200 milliseconds.

[2] = system: MCF7 human breast cancer cells; test: MTS cell viability assay; details: absorbance at 490 nm
Protocol: (§1) Cell viability measurements were carried out using a CellTiter 96® Aqueous One solution kit (Promega) in a 96-well plate, seeded 1×10^4 cells/well. After 24 hours, the cells were treated for 4 hours or 24 hours with protein polymers and P•G NPs with and without curcumin along with control treatments of curcumin alone and media alone. After the treatment periods, 20 μL [3-(4,5-dimethylthiazol-2-yl)-5-(3-carboxymethoxyphenyl)-2-(4-sulfophenyl)-2H-tetrazolium (MTS) was added to each well, followed by incubation at 37° C. for 3 hours. The plate was centrifuged for 3 minutes at 2500 rpm and then subjected to absorbance measurements at 490 nm (Tables 3 and 4).

[3] = Turbidometry, inverse temperature transition (Tt); format: physicochemical; details: midpoint of turbidity at 800 nm
Protocol: The turbidometry, or inverse temperature transition (Tt), was determined via UV-Vis Spectrophotometer Cary-50 (Agilent Technology) equipped with TC 125 temperature controller (Quantum Northwest) in Type 21 quartz cuvette with 10 mm path length (Buck Science) by monitoring the change in turbidity at 800 nm from 25° C. to 80° C. at a rate of 1° C./min. Protein stock solutions for Tt measurement were prepared in 0.2 mg/mL (or 14.3 μM and 14.4 μM for CE1-His6 and E1C-His6, respectively) in 10 mM sodium phosphate buffer, pH 8.0. In order to bring Tt value of all the samples into instrument operation range, highly concentrated NaCl solution was added prior to Tt measurement (Table 1). Measurements were performed on at least two different protein sample preps to calculate the average Tt. The Tt was determined at the midpoint of the normalized turbidity.

[4] = Curcumin loading capacity (small molecule loading); format: physicochemical; details: ratio of curcumin to protein or P•G NP; 2 hours incubation at room temperature
Protocol: Curcumin (6.5 nmol final concentration from 3 mM stock solution in HPLC grade methanol) was incubated with 1.3 nmol of CE1-His6, E1C-His6, CE1-His6•GNP and E1C-His6•GNP at room temperature for 2 hours and loaded onto Bio-Rad Spin6 columns packed with Sephadex G-25 medium beads 0.5 cm high. Bound protein polymer•curcumin complexes (in the presence or absence of GNP) were eluted by size, washed 3 times in 50 μL sodium phosphate buffer, followed by centrifugation for 5 min at 14000 rpm. The beads containing unbound curcumin were collected separately and resuspended back to buffer for solvent extraction. Both bound and unbound curcumin were extracted by adding 150 μL ethyl acetate and quantitatively determined by measuring absorbance at 416 nm. Absorbance was measured in a Hellma 105.201-QS type cuvette (10 mm light path, 100 μL sample) on SpectraMax M2. This binding study was performed on at least three different protein sample preparations to calculate the average loading capacities with errors represented as the standard deviation of the three trials.

[5] = Curcumin release over time; format: physicochemical; details: by 8.25 hrs, room temperature, 50 mM phosphate buffer pH 7.4
Protocol: Release of curcumin from CE1-His6, E1C-His6, CE1-His6•GNP and E1C-His6•GNP was then investigated. Curcumin (26 nmol) was added to 200 μL of 26 μM (5.2 nmol) protein sample. After 2 hours of incubation at room temperature, the solution was adjusted to contain a final concentration of 0.5 M NaCl. The protein polymer•curcumin complex (in the presence or absence of GNP) were incubated at 45° C. (well above the TO for 30 min and centrifuged to separate protein polymer•curcumin complex from excess curcumin. The pellets were resuspended in 200 μL of 50 mM phosphate buffer, pH 7.4 and kept at room temperature in the dark for release. After 10 min, the suspensions were centrifuged and the supernatant was removed and used for extraction assessment of released curcumin. This resuspension-incubation-spin-release cycle was repeated for the next eight hours at the following time points: 10, 25, 55, 85, 135, 195, 255, 315 and 495 min. Release study was performed on two different protein sample preparations to obtain the averaged release profile. Error bars on the release data represented standard error of the two sample preparations.

[6] = system: MCF7 human breast cancer cells
Protocol: as §1

[7] = protein polymer without GNP; data from Haghpanah et al., Mol. Biosys. 2010; cited from earlier work

Molecule	curcumin uptake visualized by fluorescence (FITC channel) [1]	Abs. (MTS Assay) ([2]; 4 Hour Treatment, listed as CCM1)	Abs. (MTS Assay) ([2]; 4 Hour Treatment, listed as CCM2)	Abs. (MTS Assay) ([2]; 24 Hour Treatment, listed as CCM1)	Abs. (MTS Assay) ([2]; 24 Hour Treatment, listed as CCM2)	Tt ([3]; 0.1621 mg/mL protein, 0.946M NaCl)	CCM/P molar binding ratio [4]	release of free curcumin [5]	cytotoxicity (MTS assays) [6]	Size of protein particles [7]	Tt ([3]; 0.1818 mg/mL protein, 0.45M NaCl)
COc1cc(/C=C/C(=O)CC(=O)/C=C/c2ccc(O)c(OC)c2)ccc1O [curcumin]	did not show any uptake	2.039 ± 0.00 and 1.999 ± 0.05	2.044 ± 0.01 and 2.025 ± 0.02	1.974 ± 0.01 and 2.034 ± 0.02	1.98 ± 0.04 and 1.999 ± 0.01						
B1	uptake albeit substantially less than the P•G NPs					55.0 ± 0.8 °C	0.40 ± 0.06	77.0%	neither the protein polymer nor P•G NPs s exhibited cytotoxicity	26.0 ± 3.0^a nm	
B2	uptake albeit substantially less than the P•G NPs						0.41 ± 0.10	78.8%	neither the protein polymer nor P•G NPs s exhibited cytotoxicity	27.9 ± 3.7^a nm	33.8 ± 2.2 °C
